This note sets out measurements from article PMC8673750 (Cell Reports, 2021).

One assay addresses T1, Peptide #289 11-mer (SARS-CoV-2, Wuhan-Hu-1).
T1 chain: DKYFKNHTSPD
In words: SPR.

The target of the next assay is T2, Peptide #288 15-mer (SARS-CoV-2, Wuhan-Hu-1).
T2 chain: KEELDKYFKNHTSPD
Nature of the assay: ELISA. On the technique in general: An ELISA detects its analyte on a solid surface through an enzyme-linked reagent.

The target in assay [1] is SARS-CoV-2 S glycoprotein, original Wuhan-Hu-1 strain (WT), full-length, on 293T cells (SARS-CoV-2, UniProt P0DTC2). In words: flow cytometry on cells. (In general: In flow cytometry, cells or beads pass a laser one at a time.)

B1: CV3-25 IgG (antibody, V domains shown)
VH: EVQLVESGAEVKKPGESLKISCKGSGYTFTRYWIGWVRQMPGKGLEWMGIIYPGDSDTRYSPSFQGHVTISADKSISTAYLQWNSLKASDTAMYYCARLPQYCSNGVCQRWFDPWGQGTLVTVSS
VL: EIVLTQSPSSVSASVGDRVTITCRASQGISSWLAWYQQKPGKAPKLLIYAASSLQSGVPSRFSGSGSGTDFTLTISSLQPEDFATYYCQQGNSFPYTFGQGTNLEIK
The Kd is the free concentration of one partner at which half of the binding sites on the other are occupied at equilibrium, for simple one-to-one binding. Low values mean a tighter complex, high ones a looser complex. As for B1, in the assay with Peptide #289 11-mer, the Kd was ~1 µM. Moreover, the binding result with Peptide #288 15-mer is on record as “binds”.

B2: CV3-1 IgG (antibody, V domains shown)
VH: EVQLVESGPEVKKPGTSVKVPCKASGFTFTSSAVQWVRQARGQRLEWIGWIVVGSGNTNYAQKFQERVTITRDMSTSTAYMELSSLRSEDTAVYYCAAPSCSGGRCYDGFDIWGQGTMVTVSS
VL: not shown
Consider B2, for which, in assay [1], the binding result was “binds”.
